According to patent CN115772221A (BOAOXIN BIOTECHNOLOGY NANJING CO LTD, dated 2023):

Target: T1, 重组人CD47-his蛋白 (ACRO biosystems, cat#CD7-H5227, MW 15.6 kDa) (human, UniProt Q08722 19-139, biotin-labelled in the ELISAs (examples 3.1, 4.1, 4.2); unlabelled in Biacore)
T1 construct: Bought protein; also called 人CD47蛋白; 人CD47-生物素; not shown: His tag
Assay: SPR (Biacore T200), antibody captured by goat anti-mouse IgG, CD47-his in solution

T1 sequence (Q08722 19-139 limits assumed): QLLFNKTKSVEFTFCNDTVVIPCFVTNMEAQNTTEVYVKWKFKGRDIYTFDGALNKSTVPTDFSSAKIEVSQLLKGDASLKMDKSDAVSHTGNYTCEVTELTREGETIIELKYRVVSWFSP

binding result: binds
B1: 小鼠抗CD47单克隆抗体1D2 (antibody, V domains shown)
VH: EVQLQQSGPELVKPGASVRISCKTSGYKFTDYNIHWVKQSHGKSLEYIGYIYPYNISSAYNQKFKSKATVTVDNSSSTSYMELRSLTSEDSAVYYCARGGWRAMDYWGQGTSVTVSS
VL: AVLMTQSPLSLPVSLGDQASLSCRSSQNIVHTNGYTYLAWYLQRPGQSPKLLIYKVSNRFSGVPDRFSGSGSGTDFTLRISRVEAEDLGVYYCFQGSHVPWTFGGGTKLEIK
notes: Tested as a mouse monoclonal antibody purified from a hybridoma; 1D2 is the only named antibody of the invention; also called 本发明的单克隆抗体1D2; 本发明的抗体1D2
